Here are results for six proteins from publication PMC4282169.

Usually Km stands for the substrate concentration at which the rate is half of its maximum. As usually defined, the kcat is the number of substrate molecules converted per active site and unit of time at saturation. The kcat/Km is the second-order rate constant that governs catalysis at low substrate concentration.

Substrate in data set [1]: O=[N+]([O-])c1ccc(O[C@@H]2O[C@H](CO)[C@@H](O)[C@H](O)[C@H]2O)cc1
The data set can be described thus: purified protein. The settings on record: 37 °C, 50 mM buffer at or near pH optimum (6.0-7.0).

Substrate in data set [2]: O=[N+]([O-])c1ccc(O[C@H]2OC[C@@H](O)[C@H](O)[C@H]2O)cc1
The experiment in a line: 4-nitrophenolate release, A410. The data set is classed as biochemical, Bacteroides ovatus. Particulars: 37 °C, 50 mM buffer at or near pH optimum (6.0-7.0).

Substrate in the data set “HPLC”: OC[C@H]1O[C@@H](O[C@H]2[C@@H](OC[C@H]3O[C@@H](O[C@H]4[C@H](O)[C@@H](O)[C@H](O[C@H]5[C@H](O)[C@@H](O)C(O)O[C@@H]5CO)O[C@@H]4CO[C@H]4OC[C@@H](O)[C@H](O)[C@H]4O[C@@H]4O[C@H](CO)[C@H](O)[C@H](O)[C@H]4O)[C@H](O)[C@@H](O)[C@@H]3O[C@@H]3O[C@H](CO[C@H]4OC[C@@H](O)[C@H](O)[C@H]4O)[C@@H](O)[C@H](O)[C@H]3O)OC[C@@H](O)[C@@H]2O)[C@H](O)[C@@H](O)[C@H]1O
The data set can be described thus: HPLC. The data set is classed as biochemical, Bacteroides ovatus. Particulars: 37 °C, 50 mM buffer at or near pH optimum (6.0-7.0).

Substrate in data set [3]: O=[N+]([O-])c1ccc(O[C@H]2O[C@H](CO)[C@@H](O)[C@H](O)[C@H]2O)cc1
The experiment in a line: purified protein. The settings on record: 37 °C, 50 mM buffer at or near pH optimum (6.0-7.0).

Substrate in data set [4]: O=[N+]([O-])c1ccc(O[C@@H]2O[C@H](CO)[C@@H](O[C@@H]3O[C@H](CO[C@H]4OC[C@@H](O)[C@H](O)[C@H]4O)[C@@H](O[C@@H]4O[C@H](CO[C@H]5OC[C@@H](O)[C@H](O)[C@H]5O)[C@@H](O[C@@H]5O[C@H](CO[C@H]6OC[C@@H](O)[C@H](O)[C@H]6O)[C@@H](O)[C@H](O)[C@H]5O)[C@H](O)[C@H]4O)[C@H](O)[C@H]3O)[C@H](O)[C@H]2O)c(Cl)c1
The data set can be described thus: 2-chloro-4-nitrophenolate release, A405, continuous. It is filed as biochemical, Bacteroides ovatus. The settings on record: 37 °C, 50 mM buffer at or near pH optimum (6.0-7.0).

Substrate in data set [5]: O=[N+]([O-])c1ccc(O[C@@H]2O[C@H](CO)[C@@H](O[C@@H]3O[C@H](CO)[C@@H](O[C@@H]4O[C@H](CO)[C@@H](O[C@@H]5O[C@H](CO)[C@@H](O)[C@H](O)[C@H]5O)[C@H](O)[C@H]4O)[C@H](O)[C@H]3O)[C@H](O)[C@H]2O)c(Cl)c1
The description is as above. It is filed as biochemical, Bacteroides ovatus. The settings on record: 37 °C, 50 mM buffer at or near pH optimum (6.0-7.0).

Substrate in data set [6]: O=[N+]([O-])c1ccc(O[C@@H]2O[C@H](CO)[C@H](O)[C@H](O)[C@H]2O)cc1
The data set can be described thus: purified protein. Particulars: 37 °C, 50 mM buffer at or near pH optimum (6.0-7.0).

Substrate in data set [7]: O=[N+]([O-])c1ccc(O[C@@H]2OC[C@@H](O)[C@H](O)[C@H]2O)cc1
The data set can be described thus: 4-nitrophenolate release, A410. The data set is classed as biochemical, Bacteroides ovatus. Particulars: 37 °C, 50 mM buffer at or near pH optimum (6.0-7.0).

Substrate in data set [8]: O=[N+]([O-])c1ccc(O[C@@H]2O[C@@H](CO)[C@H](O)[C@H]2O)cc1
The experiment in a line: 4-nitrophenolate release, A410. The data set is classed as biochemical, Bacteroides ovatus. The settings on record: 37 °C, 50 mM buffer at or near pH optimum (6.0-7.0).

Substrate in data set [9]: O=[N+]([O-])c1ccc(O[C@@H]2O[C@@H](CO)[C@H](O)[C@H]2O)cc1
The experiment in a line: continuous 4-nitrophenolate release. The data set is classed as biochemical, Bacteroides ovatus. Particulars: 37 °C, pH 7.0.

B1: BoGH3B (Bacteroides ovatus ATCC 8483) (protein)
chain: QTASPVIPTDPAIETHIREWLQKMTLEQKIGQMCEITIDVVSDLETSRKKGFCLSEAMLDTVIGKYKVGSLLNVPLGVAQKKEKWAEAIKQIQEKSMKEIGIPCIYGVDQIHGTTYTLDGTMFPQGINMGATFNRELTRRGAKISAYETKAGCIPWTFAPVVDLGRDPRWARMWENYGEDCYVNAEMGVSAVKGFQGEDPNRIGEYNVAACMKHYMGYGVPVSGKDRTPSSISRSDMREKHFAPFLAAVRQGALSVMVNSGVDNGLPFHANRELLTEWLKEDLNWDGLIVTDWADINNLCTRDHIAATKKEAVKIVINAGIDMSMVPYEVSFCDYLKELVEEGEVSMERIDDAVARVLRLKYRLGLFDHPYWDIKKYDKFGSKEFAAVALQAAEESEVLLKNDGNILPIAKGKKILLTGPNANSMRCLNGGWSYSWQGHVADEYAQAYHTIYEALCEKYGKENIIYEPGVTYASYKNDNWWEENKPETEKPVAAAAQADIIITCIGENSYCETPGNLTDLTLSENQRNLVKALAATGKPIVLVLNQGRPRIINDIVPLAKAVVNIMLPSNYGGDALANLLAGDANFSGKMPFTYPRLINALATYDYKPCENMGQMGGNYNYDSVMDIQWPFGFGLSYTNYKYSNLKVNKPTFNADDELIFTVDVTNTGKVAGKESVLLFSKDLVASSTPDNIRLRNFEKVSLEPGETKTVTLKLKGSDLAFVGYDGKWRLEKGDFKIKCGDQWMDIVCDQTKVWNTPNKNTLHK
In the case of B1, in the data set “purified protein [1]”, the Km was found to be 155 ± 39 µM, the kcat came out at 1.74 s⁻¹ and the kcat/Km is 11200 M⁻¹ s⁻¹.

B2: BoGH31A (Bacteroides ovatus ATCC 8483) (protein)
chain: SNKVYEKTGDSVIVKVQHKETGGPRLVRLQVMGDKLIHVSATADSKFADPQSLIVVPQKKQTSFAVVQNGDTITVSTEEVKASVLASTGEVWFTDKNGELILQENKGGGKTFTPIEVEGTKGYTVCQVFESPEDEAFYGLGQHQADEFNYKGKNEELFQYNTKVSVPFVVSNKNYGILLDSYSFCRFGNPNDYSQLNRIFKLYDKTGQEGALTGTYVPKKGETLVRREDSIYFENLKTIENLPKKLPLMGAKVTYEGEIEPAQTGEFKFILYYAGYVKVYLNNEPVVPERWRTAWNPNSYKFAAHLEAGKRVPLKIEWQPDGGQSYCGLRALTPVNPEEQGKQSWWSEMTKQLDYYFMAGENMDDVISGYRSLTGKSPVMPKWAMGFWQSREKYNTQEEMLGALKGFRDRKIPLDNIVLDWNHWPENAWGSHEFDKARFPDPKAMVDSIHAMHARMMISVWPKFYVTTEHFKEFDENGWMYQQSVKDSLKDWVGPGYHYGFYDAYDPDARKLFWKQMYEHYYPLGIDAWWMDASEPNVRDCTDLEYRKALCGPTALGSSTEFFNAYALMNAEAIYDGQRGVDNNKRVFLLTRSGFAGLQRYSTATWSGDIGTRWEDMKAQISAGLNFAMSGIPYWTMDIGGFCVENRYVAGQKQWNATKTENADYKEWRELNTRWYQFGAFVPLYRAHGQYPFREIWEIAPEGHPAYQSVVYYTKLRYNMMPYIYSLAGMTWFDDYTIMRPLVMDFTADAEVNDIGDQFMFGPSFMVSPVYRYGDRSREIYFPQAEGWYDFYSGKFQAGGERKVIEAPYERIPLYVRAGAIIPFGDDIQYTDEKPAEHIRLYIYQGADGEFTLYEDEGVNYNYEQGMYAMIPMKYDEATKTLVIGERQGEFPGMLKERTFTVVTVNKEKAQPFDLNAKGVTVKYNGSEQTLKL
B2: in data set [2], the Michaelis constant (Km) was 7700 ± 273 µM, the kcat was 1.6 ± 0.031 s⁻¹ and the kcat/Km was 210 M⁻¹ s⁻¹. In the data set “HPLC”, the Km was found to be 378 ± 75 µM, the kcat was 31 ± 1.9 s⁻¹ and the kcat/Km was found to be 82000 M⁻¹ s⁻¹. Further, in “purified protein [3]”, the Km was determined as 31800 ± 5100 µM, the kcat stood at 0.071 s⁻¹ and the kcat/Km was 2.2 M⁻¹ s⁻¹.

B3: BoGH5A (Bacteroides ovatus ATCC 8483) (protein)
chain: SNSDEKGGSLEVAQEYRNLEFDARGSRQTIQIDGPAEWHISTSESWCKSSHTIGEGKQYVNITVEANDTQKERTATVTVSASGAPDIIINVKQSLYSVPAYDEYIAPDNTGMRDLTSMQLSALMKAGVNVGNTFEAVIVGNDGSLSGDETCWGNPTPNKVLFEGIKAAGFDVVRIPVAYSHQFEDAATYKIKSAWMDKVEAAVKAALDAGLYVIINIHWEGGWLNHPVDANKEALDERLEAMWKQIALRFRDYDDRLLFAGTNEVNNDDANGAQPTEENYRVQNGFNQVFVNTVRATGGRNHYRHLIVQAYNTDVAKAVAHFTMPLDIVQNRIFLECHYYDPYDFTIMPNDENFKSQWGAAFAGGDVSATGQEGDIEATLSSLNVFINNNVPVIIGEYGPTLRDQLTGEALENHLKSRNDYIEYVVKTCVKNKLVPLYWDAGYTEKLFDRTTGQPHNAASIAAIMKGLN
Consider B3, for which, in data set [4], the Km turned out to be 36 ± 2.7 µM, the kcat is 10.5 ± 0.14 s⁻¹ and the catalytic efficiency (kcat/Km) was 292000 M⁻¹ s⁻¹. Besides, in [5], the Km came out at 3590 ± 1270 µM, the kcat came out at 0.12 ± 0.025 s⁻¹ and the kcat/Km came to 34 M⁻¹ s⁻¹.

B4: BoGH2A (Bacteroides ovatus ATCC 8483) (protein)
chain: LALGGCLMLLGACSSSSLVSPRERSDFNADWRFHLGDGLQAAQPGFADNDWRVLDLPHDWAIEGDFSQENPSGTGGGALPGGVGWYRKTFSVDKADAGKIFRIEFDGVYMNSEVFINGVSLGVRPYGYISFSYDLTPYLKWDEPNVLAVRVDNAEQPNSRWYSGCGIYRNVWLSKTGPIHVGGWGTYVTTSSVDEKQAVLNLATTLVNESDTNENVTVCSSLQDAEGREVAETRSSGEAEAGKEVVFTQQLTVKQPQLWDIDTPYLYTLVTKVMRNEECMDRYTTPVGIRTFSLDARKGFTLNGRQTKINGVCMHHDLGCLGAAVNTRAIERHLQILKEMGCNGIRCSHNPPAPELLDLCDRMGFIVMDEAFDMWRKKKTAHDYARYFNEWHERDLNDFILRDRNHPSVFMWSIGNEVLEQWSDAKADTLSLEEANLILNFGHSSEMLAKEGEESVNSLLTKKLVSFVKGLDPTRPVTAGCNEPNSGNHLFRSGVLDVIGYNYHNKDIPNVPANFPDKPFIITESNSALMTRGYYRMPSDRMFIWPKRWDKSFADSTFACSSYENCHVPWGNTHEESLKLVRDNDFISGQYVWTGFDYIGEPTPYGWPARSSYFGIVDLAGFPKDVYYLYQSEWTDKQVLHLFPHWNWTPGQEIDMWCYYNQADEVELFVNGKSQGVKRKDLDNLHVAWRVKFEPGTVKVIARESGKVVAEKEICTAGKPAEIRLTPDRSILTADGKDLCFVTVEVLDEKGNLCPDADNLVNFTVQGNGFIAGVDNGNPVSMERFKDEKRKAFYGKCLVVIQNDGKPGKAKLTATSEGLRQAVLKISAEEL
Consider B4, for which, in the data set “purified protein [6]”, the Michaelis-Menten constant (Km) was found to be 87 ± 7.4 µM, the kcat was 4 s⁻¹ and the kcat/Km amounted to 46000 M⁻¹ s⁻¹.

B5: BoGH43A (Bacteroides ovatus ATCC 8483) (protein)
chain: QGYSNPVIPGFHPDPSVCKAGDDYYLVNSSFQYFPGVPLFHSKDLVHWEQIGNCLTRPSQLDLTNANSGSGIFAPTIRYNDGVFYMITTNVSGKGNFLVHTTDPRSEWSEPVWLEQGGIDPSLYFEDGKCFMVSNPDGYINLCEIDPMTGKQLSSSKRIWNGTGGRYAEGPHIYKKDGWYYLLISEGGTELGHKVTIARSRYIDGPYQGNPANPILTHANESGQSSPIQGTGHADLVEGTDGSWWMVCLAYRIMPGTHHTLGRETYLAPVRWDKDAWPVVNSNGTISLKMDVPTLPQQEMKGRPERIDFKEGKLSPEWIHLQNPEAKNYIFTKDGKLRLIATPVTLSDWKSPTFVALRQEHFDMEASAPVVLQKAGVNDEAGISVFMEFHSHYDLFVRQDKDRKRSVGLRYKLGEITHYAKEVSLPTDGEVELVVKSDINYYYFGYKVNGIYHDLGKMNTRYLSTETAGGFTGVVLGLYITSASKDSKAYADFEYFKYKGKPGENK
On to B5, for which, in data set [7], the Km turned out to be 6580 ± 210 µM, the kcat stood at 0.26 ± 0.005 s⁻¹ and the kcat/Km stood at 39 M⁻¹ s⁻¹. In [8], the Michaelis constant (Km) amounted to 710 ± 30 µM, the turnover number (kcat) came out at 0.057 ± 0.001 s⁻¹ and the kcat/Km turned out to be 81 M⁻¹ s⁻¹.

B6: BoGH43B (Bacteroides ovatus ATCC 8483) (protein)
chain: QKTFRNPIITGMNPDPSICRVGDDFYLVTSTFEYFPGLPVYHSKDLVHWKLIGHALSRPENNPLMGCNASTGGQYAPTLRYHDGTFYVIGTNYGGKGSQGVFYVTAKNPAGPWSDPVWVGNWYVDPSIEFIDGKMYFLSPDNQGSFLLGVMDPETGTFVEALRKVASGLGGSSPEGPHFYKIGDYYYIMSAEGGTGYEHREVIQRSKSPWGPYEPSPVNPVLSNMNCPDHPFQAIGHADLVQLKDGSWWAVCLGIRPVNGKYQHLGRETFLAPVTWDADGWPKVGKDGVVQETYLFPNLPSHVWMEQPVRDDFDQETLGLDWTFIRNPAHSFWSLTEKPGSLRLKGTAINFTTNDSPSFIGRRQAAFNLTASAKVNFIPKVENEEAGLVVRADDKNHYDLLITERNGQRVAMIRKTLKDKVVDTTCKELPATGEVILSITATETTYTFEIKAAHVSAILGTASTRDVSNEVVGGFTGVFIGMYASGNGQANTNPADFDWFDFRCLD
As to B6, in [9], the Km worked out at 6600 ± 2300 µM, the kcat stood at 0.0005 ± 8.1e-05 s⁻¹ and the kcat/Km was 0.076 M⁻¹ s⁻¹.
